The Kd is the equilibrium constant for the complex coming apart. Low readings indicate a tighter complex, high ones a looser complex. As a reminder, the stoichiometry N is a count of units in the complex or per binding partner.

Drawing on PMC7251975 (Biochemistry, 2016), this text covers Kd and stoichiometry N for two molecules.

Experiment [1] concerns the target rSTEAP1 (Six Transmembrane Epithelial Antigen of Prostate 1) (Oryctolagus cuniculus, UniProt G1SWI4). As to the kind of experiment: fluorescence titration. It is filed as binding.
The target in experiment [2] is rabbit STEAP1 (Six Transmembrane Epithelial Antigen of Prostate member 1) with residues 2-42 truncated (rabbit). As to the kind of experiment: SEC-MALS.
Experiment [3] has the same target. As to the kind of experiment: SEC.

Chain of rSTEAP1 (Six Transmembrane Epithelial Antigen of Prostate 1) (G1SWI4 43-352): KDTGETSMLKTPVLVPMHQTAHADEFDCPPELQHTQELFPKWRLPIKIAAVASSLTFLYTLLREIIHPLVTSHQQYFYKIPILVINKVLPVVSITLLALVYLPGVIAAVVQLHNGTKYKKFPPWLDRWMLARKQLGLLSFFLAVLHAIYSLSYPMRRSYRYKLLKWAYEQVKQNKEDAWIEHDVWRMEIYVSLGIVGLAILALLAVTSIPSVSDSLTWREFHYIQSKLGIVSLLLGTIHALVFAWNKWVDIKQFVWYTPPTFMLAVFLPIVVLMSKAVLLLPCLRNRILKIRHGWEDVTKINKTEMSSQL

In turn, `Cc1cc2nc3c(=O)[nH]c(=O)nc-3n(C[C@H](O)[C@H](O)[C@H](O)COP(=O)(O)OP(=O)(O)OC[C@H]3O[C@@H](n4cnc5c(N)ncnc54)[C@H](O)[C@@H]3O)c2cc1C` [FAD] returned a Kd in experiment [1] of 32.3 ± 1.3 µM. For “rabbit STEAP1 (Six Transmembrane Epithelial Antigen of Prostate member 1) with residues 2-42 truncated (domain or fragment)”, the stoichiometry N in experiment [2] and in experiment [3] was 3 throughout.
